From US10927188B2, “Method for producing short-chain peptide-immobilized carrier, and short-chain peptide-immobilized carrier” (FUJIFILM Corporation, priority 2015, dated 2021) come the findings set out here.

Where no end group is shown, it is not given here.

This data set in a line: Percentage content of secondary structure by CD (circular dichroism) spectrum. Particulars: for Percentage content of secondary structure In HEPES: free peptide in HEPES buffer solution (10 mM HEPES-HCl, 150 mM NaCl, pH 7.4, 25° C.); for Percentage content of secondary structure In MeOH: free peptide in methanol (purity 99.5% by mass). Format: physicochemical. Background: Circular dichroism is the unequal absorption of left and right circularly polarised light.

As to “Ac-KAAKEQQKAFYKILH [Short-chain peptide 5]”, the “Percentage content of secondary structure In HEPES” value is reported as 36% and the “Percentage content of secondary structure In MeOH” value came out at 92%.
In the same order, the values of “KKKEQQNAFYEILHKKK (SIMILAR (4)..(14) SEQ ID No.2 EQQNAFYEILH; SIMILAR (4)..(10) SEQ ID No.1 EQQNAFY) [Short-chain peptide 3]” are 33% and 100%.
In the same order, the values of “KKKKEQQNAFYEILHKKKK (SIMILAR (5)..(11) SEQ ID No.1 EQQNAFY; SIMILAR (5)..(15) SEQ ID No.2 EQQNAFYEILH) [Short-chain peptide 4]” are 32% and 100%.
The matching figures for “KKKKKEQQNAFYEILH (SIMILAR (6)..(12) SEQ ID No.1 EQQNAFY; SIMILAR (6)..(16) SEQ ID No.2 EQQNAFYEILH) [Short-chain peptide 2]”: 30% and 84%.
Take “KKRKEQQKKFYKKLHK [Short-chain peptide 8]”: the “Percentage content of secondary structure In HEPES” value amounted to 16% and the “Percentage content of secondary structure In MeOH” value is given as 88%.
For the substance “KKRKEQQNAFYEILHKRRKK [Short-chain peptide 7]”, the “Percentage content of secondary structure In HEPES” value is recorded as 35% and the “Percentage content of secondary structure In MeOH” value came to 100%.
On to “KKRREQQNAFYEILHKRRKK [Short-chain peptide 6]”, for which the “Percentage content of secondary structure In HEPES” value was 35% and the “Percentage content of secondary structure In MeOH” value turned out to be 100%.
